EP1132405A1 (Takeda Chemical Industries, Ltd., dated 2001)
Ends that are not written are not given here.

Biological target: rat cerebellum-derived G protein-coupled receptor protein rOT7T022L (rat, UniProt Q9EP86 1-432)
Experiment: cell-based or functional assay

rat cerebellum-derived G protein-coupled receptor protein rOT7T022L, sequence (Q9EP86 whole entry, form in doubt): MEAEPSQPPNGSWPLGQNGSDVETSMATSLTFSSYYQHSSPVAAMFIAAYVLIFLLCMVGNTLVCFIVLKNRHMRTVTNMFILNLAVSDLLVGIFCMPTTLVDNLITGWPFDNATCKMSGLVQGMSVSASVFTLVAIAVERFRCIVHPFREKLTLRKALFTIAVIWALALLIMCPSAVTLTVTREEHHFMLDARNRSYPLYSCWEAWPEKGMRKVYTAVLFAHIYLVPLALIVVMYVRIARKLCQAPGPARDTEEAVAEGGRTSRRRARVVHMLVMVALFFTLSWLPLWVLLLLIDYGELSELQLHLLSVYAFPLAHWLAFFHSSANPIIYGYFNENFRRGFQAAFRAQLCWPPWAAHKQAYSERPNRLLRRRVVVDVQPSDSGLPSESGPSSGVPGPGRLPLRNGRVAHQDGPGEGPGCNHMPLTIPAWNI

MPHSFANLPLRF-NH2 [peptide MPHSFANLPLRFamide (Met-Pro-His-Ser-Phe-Ala-Asn-Leu-Pro-Leu-Arg-Phe-NH2)]
IC50 of cAMP production suppression (forskolin-stimulated, cAMP EIA): 0.5 nM
